Assay results published in article PMC10482750, “Assessment of the roles of Spt5-nucleic acid contacts in promoter proximal pausing of RNA polymerase II” (The Journal of Biological Chemistry, 2023).
Positions count from the first letter of the chain named. In names and notes the source's numbering stands.

B1: DRB sensitivity-inducing factor (DSIF), wild type (Spt5 and Spt4) (complex)
chain 1: not shown
chain 2: MAFDAIPKDLRGLRACLVCSLVKSFDQFETDGCENCEEFLRMKNNKDNVYDHTSNNFDGIIALTTPTDSWVAKWQRLSRFTRGIYAISVSGTLPQSTLRDMKNRGIVYKSRDRSQR
notes: Spt5, Drosophila; Spt4, Drosophila; No tag cleavage is described; A ~100-kDa Spt5 degradation product lacking the acidic N-terminal region is in each preparation; also called WT DSIF; source: E. coli Rosetta (DE3) pLysS, purified (Talon, anti-FLAG)
B2: DSIF Spt4 (R79E, R82E, K109E) mutant (complex)
chain 1: not shown
chain 2: B1 chain 2 with R79E, R82E, K109E
notes: Spt5, Drosophila, wild type; as in m2; Spt4, Drosophila, three basic residues changed to glutamic acid; also called Spt4 mutant; source: E. coli, purified as WT DSIF (Talon, anti-FLAG)
B3: DSIF NGN-Asp mutant (complex)
chain 1: not shown
chain 2: B1 chain 2
notes: Spt5, Drosophila, two basic residues of the NGN domain changed to aspartic acid; d numbers are Drosophila Spt5; Spt4, Drosophila; as in m2; source: E. coli Rosetta (DE3) pLysS, purified (Talon, anti-FLAG)

molecular target: T1, negative elongation factor (NELF): NELF-A, NELF-B, NELF-D, NELF-E (Drosophila, UniProt Q86NP2 1-1251; Q9Y113 1-594; Q24134 1-578; P92204 1-280); assay: native gel or EMSA; stalled Pol II elongation complexes plus purified WT or mutant DSIF and NELF together (supershift); room temperature; Torula yeast RNA added; 4% native polyacrylamide gel run at 4 °C; conditions: both partners purified
T1 construct: NELF-A, Drosophila; NELF-B, Drosophila; NELF-D, Drosophila; NELF-E, Drosophila; No tag cleavage is described; source: Sf9, baculovirus, purified (Ni-NTA, anti-FLAG); copies: + + +
T1 sequence (Q86NP2 whole entry, chain 1 of 4): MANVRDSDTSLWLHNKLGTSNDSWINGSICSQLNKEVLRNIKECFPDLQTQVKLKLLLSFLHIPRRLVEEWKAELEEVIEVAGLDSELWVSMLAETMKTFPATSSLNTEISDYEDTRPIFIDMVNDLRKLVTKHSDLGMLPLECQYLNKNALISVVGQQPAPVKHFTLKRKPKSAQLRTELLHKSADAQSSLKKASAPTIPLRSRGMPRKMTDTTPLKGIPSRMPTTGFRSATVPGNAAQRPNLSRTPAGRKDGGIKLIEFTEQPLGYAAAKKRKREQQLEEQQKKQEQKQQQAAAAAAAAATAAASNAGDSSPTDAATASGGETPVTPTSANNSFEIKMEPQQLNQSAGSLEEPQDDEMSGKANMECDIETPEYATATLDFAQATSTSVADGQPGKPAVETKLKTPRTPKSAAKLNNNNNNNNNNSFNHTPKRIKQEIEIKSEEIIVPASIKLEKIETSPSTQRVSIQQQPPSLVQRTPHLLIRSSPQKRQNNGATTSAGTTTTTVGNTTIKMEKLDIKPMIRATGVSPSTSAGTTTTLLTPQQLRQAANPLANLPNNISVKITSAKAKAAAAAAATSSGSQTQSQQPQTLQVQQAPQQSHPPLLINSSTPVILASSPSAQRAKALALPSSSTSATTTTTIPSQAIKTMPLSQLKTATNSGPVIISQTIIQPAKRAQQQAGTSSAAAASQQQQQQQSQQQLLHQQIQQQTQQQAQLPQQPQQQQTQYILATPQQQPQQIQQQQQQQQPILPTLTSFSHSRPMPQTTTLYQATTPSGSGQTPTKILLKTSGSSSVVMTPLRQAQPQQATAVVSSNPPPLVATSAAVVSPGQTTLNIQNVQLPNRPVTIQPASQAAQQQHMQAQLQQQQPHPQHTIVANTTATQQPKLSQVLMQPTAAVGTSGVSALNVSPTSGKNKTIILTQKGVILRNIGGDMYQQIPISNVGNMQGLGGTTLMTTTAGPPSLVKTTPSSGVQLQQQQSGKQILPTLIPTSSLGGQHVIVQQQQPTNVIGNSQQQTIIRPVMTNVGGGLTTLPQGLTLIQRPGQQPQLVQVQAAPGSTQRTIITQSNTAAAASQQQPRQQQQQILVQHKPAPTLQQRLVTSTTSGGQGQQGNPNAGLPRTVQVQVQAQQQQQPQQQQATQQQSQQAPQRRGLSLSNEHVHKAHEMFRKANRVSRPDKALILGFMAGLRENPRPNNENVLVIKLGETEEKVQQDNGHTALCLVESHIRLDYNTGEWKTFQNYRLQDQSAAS
T1 sequence (Q9Y113 whole entry, chain 2 of 4): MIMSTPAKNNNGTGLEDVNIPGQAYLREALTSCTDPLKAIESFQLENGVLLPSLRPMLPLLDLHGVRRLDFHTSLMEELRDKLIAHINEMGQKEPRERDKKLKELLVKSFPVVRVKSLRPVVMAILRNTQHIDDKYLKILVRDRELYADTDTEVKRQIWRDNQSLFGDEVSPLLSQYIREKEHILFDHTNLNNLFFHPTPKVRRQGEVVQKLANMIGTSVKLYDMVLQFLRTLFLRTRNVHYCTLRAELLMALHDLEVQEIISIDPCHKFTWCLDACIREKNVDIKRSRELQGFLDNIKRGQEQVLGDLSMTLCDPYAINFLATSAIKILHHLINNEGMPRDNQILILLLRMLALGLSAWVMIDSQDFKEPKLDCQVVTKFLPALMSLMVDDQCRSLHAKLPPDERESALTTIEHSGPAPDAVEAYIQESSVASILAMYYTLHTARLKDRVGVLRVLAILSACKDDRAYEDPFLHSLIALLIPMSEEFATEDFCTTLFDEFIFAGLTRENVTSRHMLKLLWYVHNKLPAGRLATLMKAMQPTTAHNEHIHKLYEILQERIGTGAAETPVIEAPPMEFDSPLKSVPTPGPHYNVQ
T1 sequence (Q24134 whole entry, chain 3 of 4): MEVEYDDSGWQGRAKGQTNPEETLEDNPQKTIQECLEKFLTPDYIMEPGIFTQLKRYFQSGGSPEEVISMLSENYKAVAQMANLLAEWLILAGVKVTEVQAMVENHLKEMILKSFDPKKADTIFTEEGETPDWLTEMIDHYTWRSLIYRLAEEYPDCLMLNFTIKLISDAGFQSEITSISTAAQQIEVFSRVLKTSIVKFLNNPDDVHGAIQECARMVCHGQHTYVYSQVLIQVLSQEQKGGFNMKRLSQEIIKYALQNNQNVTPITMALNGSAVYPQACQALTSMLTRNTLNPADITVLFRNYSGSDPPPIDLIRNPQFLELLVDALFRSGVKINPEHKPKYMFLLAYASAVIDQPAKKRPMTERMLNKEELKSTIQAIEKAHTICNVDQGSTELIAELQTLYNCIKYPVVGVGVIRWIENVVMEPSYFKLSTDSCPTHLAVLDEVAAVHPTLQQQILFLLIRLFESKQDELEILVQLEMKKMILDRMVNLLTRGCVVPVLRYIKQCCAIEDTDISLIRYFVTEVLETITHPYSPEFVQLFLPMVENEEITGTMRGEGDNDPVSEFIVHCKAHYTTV
T1 sequence (P92204 whole entry, chain 4 of 4): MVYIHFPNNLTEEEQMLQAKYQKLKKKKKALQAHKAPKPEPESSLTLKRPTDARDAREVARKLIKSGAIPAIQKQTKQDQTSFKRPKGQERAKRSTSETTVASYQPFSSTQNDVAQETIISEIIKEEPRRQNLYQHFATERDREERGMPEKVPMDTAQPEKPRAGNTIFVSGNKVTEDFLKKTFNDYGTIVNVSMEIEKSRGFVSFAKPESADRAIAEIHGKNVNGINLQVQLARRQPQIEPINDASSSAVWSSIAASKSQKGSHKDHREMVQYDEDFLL

Binding result, binds:
B1
B2
B3
